Test results reported in patent US20260248877A1 (Universite de Rennes, priority 2021, published 2026).
Where “and” joins values, the source holds several entries; their conditions need not be identical. Equal entries are not always repeated. Entries after “also recorded” stand apart in the source; their conditions may differ.

Key:
[1] = test system: cells of the neuroblastoma line SH-SY5Y; experiment: Growth of SH-SY5Y neuroblastoma cells (images); assay type: cell-based; settings: 100 μM, 24 hours, 1×DMEM medium, 8% serum
Procedure: The effects of three hexapeptides classified as “therapeutic” (1tp, 4tp, 6tp) and of two peptides classified as “amyloid” (7tp and 1p) on the growth of cells of the neuroblastoma line SH-SY5Y were studied after 24 hours of treatment in the presence of a hexapeptide at a concentration of 100 μM in 1×DMEM medium, 8% serum. The results obtained are presented on FIG. 10(A).

[2] = target: T1, PHF6 peptide (VQIVYK, 1p) (Homo sapiens, UniProt P10636); experiment: Effects of the derived peptides on VQIVYK polymerization by spectrofluorimetry (ThT kinetics); assay type: biochemical; settings: [1p]=155 μM, [selected peptide]=310 μM; for fluorescence intensity (plateau / at 100 minutes) of 1p in the presence of peptide, % of 1p alone / maximum polymerization rate of 1p in the presence of peptide, % of 1p alone: [ThT]=32 μM; for inhibitory effect on 1p (PHF6) polymerization (in words): thresholds 50% rate, 100% fluorescence intensity
T1 construct: The polymerization of VQIVYK was initiated by adding ¼ of the volume of fibrillation buffer 5×

[3] = Determination of the amyloidogenic character of the peptides by Thioflavin T fluorescence; assay type: physicochemical; settings: for amyloidogenic character (in words): ThT fluorescence, Garnier-Delamarche representation; for % fluorescence: 800 μM peptide, ThT fluorescence normalized to 1p = 100% (16p and 9tp: 288 μM per FIG. 3 legend)
Procedure: (§1) After thawing, a pre-dilution in milli Q H2O filtered through 0.2 μm was carried out in order to obtain a solution at a concentration close to the working concentration, greater than 1.25 times. This stock solution was left to incubate for 1 hour in a water bath at 25° C., and was then assayed spectrophotometrically and adjusted to the final working concentration of 1.25 times. The polymerization was initiated by adding ¼ of the volume of 5× fibrillation buffer (50 mM MOPS, 750 mM NaCl, pH=7.2) for a final concentration of 1× fibrillation buffer (10 mM MOPS, 150 mM NaCl, PH=7.2). The samples were left to incubate for 1.5-2 hours at 25° C. in a water bath. The study of the polymerization by fluorimetry was carried out under the same conditions, except that the 5× polymerization buffer was supplemented with Thioflavin T (ThT) at 100 μM in order to be able to observe the fluorescence. • (a) Determination of the Aggregative Character of the Peptides. Once polymerized, the samples were ultracentrifuged at 100,000 g for 5 minutes at 25° C. (Beckman TL100, rotor TL-A100). The supernatants of each sample were then collected. An assay at 280 nm in triplicate of each supernatant was then carried out in the presence of 1% SDS. The concentration of the supernatant was determined using the Beer-Lambert law A=ε×1×C; ε (peptides)=1450 M^−1cm^−1. The concentration of sedimentable species in the pellet was then deduced by the difference: “total concentration of the sample—concentration of free peptide present in the supernatant”. • (b) Determination of the Amyloidogenic Character of the Peptides. Once the peptides have polymerized as previously indicated, 40 μL of peptides polymerized at a concentration of 400 μM and 800 μM were diluted in 360 μL of Thioflavin T (10 μM ThT, 1×MOPS) in a thermostatically controlled tank of 0.2×1 cm, to a final volume of 400 μL. The fluorescence of the sample was then measured immediately after dilution by recording a fluorescence spectrum (470 nm to 600 nm) at an excitation wavelength of 450 nm (Perkin Elmer LS 55, PM 750, slit10).
(§2) After prediction of their amyloidogenic character by bioinformatics, all the peptides were studied using biochemical techniques, namely sedimentation and fluorescence/ThT. The biochemical experiments were carried out at two peptide concentrations: 400 μM and 800 μM. Only the results obtained at 800 μM are presented. At this concentration, in sedimentation, the amount of sedimentable peptide after polymerization was measured and expressed as a percentage as a function of the total concentration. This value corresponds to the aggregative character of the peptides. On the other hand, the fluorescence test was used to determine their amyloidogenic character, the fluorescence value given corresponds to a normalization with respect to 1p, considering that its fluorescence is 100% (Table 4).

[4] = Determination of the aggregative character of the peptides by sedimentation; assay type: physicochemical; settings: for aggregative character (in words): sedimentation, Garnier-Delamarche representation; for % sedimentation: 800 μM peptide, sedimentable peptide after polymerization as percentage of total concentration (16p and 9tp: 288 μM per FIG. 3 legend)
Procedure: as §1, §2

[5] = Solubility of peptides in aqueous medium; assay type: physicochemical; settings: could not be tested at 800 μM
Procedure: The PHIF6 peptide (Ac-VQIVYK-NH2) as well as the derived hexapeptides were produced by Proteogenix® in an N-acetylated and C-amidated form and supplied in a lyophilized form. They are acetylated and amidated in order to better mimic the original protein. They were resuspended in milli Q water and filtered through 0.2 μm to obtain a concentration close to 5 mg/mL. After being vortexed for 15 minutes, the peptide solution was sonicated for 15 minutes at 35° C. in a sonicator water bath (Advantage-Lab AL04-04) then ultracentrifuged (Beckman TL100) at 100,000 g for 10 minutes at 20° C. The pellet containing the residual aggregates was discarded. The concentration of the supernatant was determined by measuring UV absorption at 280 nm using a molar extinction coefficient of 1450 M^−1cm^−1 in 1% SDS.

Substance	amyloidogenic character (in words) [3]	aggregative character (in words) [4]	% fluorescence [3]	% sedimentation [4]	further results
Ac-IQVVYK-NH2 [7tp, IQVVYK]					effect on cell growth (number and appearance of cells) [1]: the number of cells seemed to strongly decrease
Ac-VKIQYV-NH2 [4tp, VKIQYV]					effect on cell growth (number and appearance of cells) [1]: did not seem to have any effect
Ac-VKIVYQ-NH2 [1tp, VKIVYQ]					fluorescence intensity (plateau / at 100 minutes) of 1p in the presence of peptide, % of 1p alone [2]: 23.5%; maximum polymerization rate of 1p in the presence of peptide, % of 1p alone [2]: 12%; effect on cell growth (number and appearance of cells) [1]: did not seem to have any effect
Ac-VQIVYK-NH2 [1p, Ac-VQIVYK-NH2, reference compound]	strong amyloidogenic	self-aggregative			effect on cell growth (number and appearance of cells) [1]: the number of cells seemed to strongly decrease
Ac-YQVKIV-NH2 [16p, YQVKIV]					solubility in aqueous medium [5]: low solubility
Ac-YQVVIK-NH2 [9tp, YQVVIK]					solubility in aqueous medium [5]: low solubility
IKQVYV (Ac-IKQVYV-NH2) [5p]	weakly amyloidogenic	weakly aggregative	1.1%	5%	category of polymerization kinetics of 1p in the presence of peptide [2]: generally follow the kinetics of 1p alone; inhibitory effect on 1p (PHF6) polymerization (in words) [2]: marked inhibitory effect; also recorded: with a weak inhibitory effect
IQYVVK (Ac-IQYVVK-NH2) [8tp]			17.5%	78%	
IYVQKV (Ac-IYVQKV-NH2) [9p]	weakly amyloidogenic	weakly aggregative	2.1%	1%	category of polymerization kinetics of 1p in the presence of peptide [2]: generally follow the kinetics of 1p alone; inhibitory effect on 1p (PHF6) polymerization (in words) [2]: without any inhibitory effect
KQIVYV (Ac-KQIVYV-NH2) [20p]			1.3%	75%	
KVQIVY (Ac-KVQIVY-NH2) [10p]			3.2%	63%	
KVQYVI (Ac-KVQYVI-NH2) [14p]	weakly amyloidogenic	weakly aggregative	4.4%	1%	category of polymerization kinetics of 1p in the presence of peptide [2]: generally follow the kinetics of 1p alone; inhibitory effect on 1p (PHF6) polymerization (in words) [2]: without any inhibitory effect
KYIQVV (Ac-KYIQVV-NH2) [2p]			2.8%	67%	
KYVIQV (Ac-KYVIQV-NH2) [15p]			3.9%	71%	
QKVVYI (Ac-QKVVYI-NH2) [18p]			6.8%	51%	
QKVYIV (Ac-QKVYIV-NH2) [19p]	vice versa	vice versa	0.8%	76%	

Substance	amyloidogenic character (in words) [3]	aggregative character (in words) [4]	% fluorescence [3]	% sedimentation [4]	further results
QKYIVV (Ac-QKYIVV-NH2) [8p]			1.9%	0%	category of polymerization kinetics of 1p in the presence of peptide [2]: very high rate and intensity of fluorescence; inhibitory effect on 1p (PHF6) polymerization (in words) [2]: without any inhibitory effect
QVIKYV (Ac-QVIKYV-NH2) [23p]	weakly amyloidogenic	weakly aggregative	0.8%	5%	category of polymerization kinetics of 1p in the presence of peptide [2]: very high rate and intensity of fluorescence; fluorescence intensity (plateau / at 100 minutes) of 1p in the presence of peptide, % of 1p alone [2]: 161.7%; maximum polymerization rate of 1p in the presence of peptide, % of 1p alone [2]: 65%; inhibitory effect on 1p (PHF6) polymerization (in words) [2]: non-inhibitory peptide; also recorded: without any inhibitory effect
VKVIYQ (Ac-VKVIYQ-NH2) [7p]			1.3%	86%	
VKVYIQ (Ac-VKVYIQ-NH2) [11p]			25%	6%	
VKYQVI (Ac-VKYQVI-NH2) [3p]	very poorly amyloidogenic	more aggregative than the 10 selected hexapeptides	0.2%	18%	
VQIKYV (Ac-VQIKYV-NH2) [0tp]			10.7%	0%	
VQKIYV (Ac-VQKIYV-NH2) [4p]	weakly amyloidogenic	weakly aggregative	0.8%	1%	category of polymerization kinetics of 1p in the presence of peptide [2]: generally follow the kinetics of 1p alone; fluorescence intensity (plateau / at 100 minutes) of 1p in the presence of peptide, % of 1p alone [2]: 80%; maximum polymerization rate of 1p in the presence of peptide, % of 1p alone [2]: 50%; inhibitory effect on 1p (PHF6) polymerization (in words) [2]: inhibits the polymerization of 1p; also recorded: marked inhibitory effect; also recorded: with a weak inhibitory effect
VQVIYK (Ac-VQVIYK-NH2) [12p]			82% and 81.6%	14%	
VQVKYI (Ac-VQVKYI-NH2) [21p]	amyloidogenic	poorly aggregative	19.9%	33%	
VQVYKI (Ac-VQVYKI-NH2) [22p]			3%	34%	
VQYVIK (Ac-VQYVIK-NH2) [5tp]	amyloidogenic	aggregative	71.7%	26%	
VVIKYQ (Ac-VVIKYQ-NH2) [3tp]			0.9%	48%	
VVIQYK (Ac-VVIQYK-NH2) [2tp]			2.9%	58%	
VVQKYI (Ac-VVQKYI-NH2) [6p]	weakly amyloidogenic; also recorded: very poorly amyloidogenic	weakly aggregative; also recorded: more aggregative than the 10 selected hexapeptides	0.2%	14%	
YIVVQK (Ac-YIVVQK-NH2) [13p]	weakly amyloidogenic	weakly aggregative	2.7%	0%	category of polymerization kinetics of 1p in the presence of peptide [2]: generally follow the kinetics of 1p alone; inhibitory effect on 1p (PHF6) polymerization (in words) [2]: without any inhibitory effect
YQVIVK (Ac-YQVIVK-NH2) [17p]			2.3%	95%	
